Key:
Assay in all cases: SPR (Biacore);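 note: antibody variants captured on sensor chip, Fcγ receptor flowed over at 25 °C, bound receptor normalized to amount of captured antibody, expressed relative to reference antibody set as 100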
human FcγRIa = molecular target: T1, human FcγRIa (human, UniProt P12314 16-292, limits assumed)
T1 construct: also called FcgRIa; FcγRI (CD64)

human FcγRIIa(R) = molecular target: T2, human FcγRIIa(R) (human, UniProt P12318 36-217)
T2 construct: also called FcgRIIaR; FcγRIIa type R
T2 chain: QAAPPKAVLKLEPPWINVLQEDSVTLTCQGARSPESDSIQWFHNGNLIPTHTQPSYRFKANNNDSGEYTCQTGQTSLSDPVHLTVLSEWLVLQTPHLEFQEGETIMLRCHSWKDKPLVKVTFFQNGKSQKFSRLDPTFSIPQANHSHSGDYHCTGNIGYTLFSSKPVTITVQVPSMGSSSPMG

human FcγRIIa(H) = molecular target: T3, human FcγRIIa(H) (human, UniProt P12318 36-217)
T3 construct: also called FcgRIIaH; FcγRIIa type H
T3 sequence: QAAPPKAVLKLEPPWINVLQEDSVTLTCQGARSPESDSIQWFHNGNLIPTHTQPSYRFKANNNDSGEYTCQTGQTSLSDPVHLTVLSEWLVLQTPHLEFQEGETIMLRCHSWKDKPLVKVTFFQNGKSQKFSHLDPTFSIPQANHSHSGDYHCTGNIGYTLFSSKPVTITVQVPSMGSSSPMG

human FcγRIIb = molecular target: T4, human FcγRIIb (human, UniProt P31994 43-217, limits assumed)
T4 construct: also called FcgRIIb
T4 sequence: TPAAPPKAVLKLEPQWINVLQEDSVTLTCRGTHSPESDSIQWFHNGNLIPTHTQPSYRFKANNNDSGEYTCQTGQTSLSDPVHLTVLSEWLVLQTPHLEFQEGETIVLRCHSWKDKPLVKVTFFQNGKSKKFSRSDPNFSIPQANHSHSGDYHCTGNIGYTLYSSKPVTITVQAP

human FcγRIIIa(F) = molecular target: T5, human FcγRIIIa(F) (human, UniProt P08637 17-208, limits assumed)
T5 construct: also called FcgRIIIaF; allotype F158
T5 sequence (P08637 other isoform, or with tags, fused parts or gaps limits assumed): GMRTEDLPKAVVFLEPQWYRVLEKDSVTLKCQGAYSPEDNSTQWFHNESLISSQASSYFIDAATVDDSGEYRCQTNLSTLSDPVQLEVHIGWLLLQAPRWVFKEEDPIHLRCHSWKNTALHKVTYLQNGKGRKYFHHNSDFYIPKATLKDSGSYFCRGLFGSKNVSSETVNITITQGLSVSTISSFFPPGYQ

T1 sequence (P12314 16-292 limits assumed): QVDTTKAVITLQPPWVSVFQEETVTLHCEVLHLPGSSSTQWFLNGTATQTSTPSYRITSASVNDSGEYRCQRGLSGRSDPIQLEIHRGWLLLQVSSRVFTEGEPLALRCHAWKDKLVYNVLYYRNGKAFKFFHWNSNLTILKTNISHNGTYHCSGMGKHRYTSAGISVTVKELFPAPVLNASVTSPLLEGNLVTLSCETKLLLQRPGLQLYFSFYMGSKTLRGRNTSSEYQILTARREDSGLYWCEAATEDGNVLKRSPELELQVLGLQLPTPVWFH

| relative binding activity (human FcγRIa) | relative binding activity (human FcγRIIa(R)) | relative binding activity (human FcγRIIa(H)) | relative binding activity (human FcγRIIb) | relative binding activity (human FcγRIIIa(F)) | Binder |
| --- | --- | --- | --- | --- | --- |
| 8 % of GpH7-B3/GpL16-k0 | 55 % of GpH7-B3/GpL16-k0 | 10 % of GpH7-B3/GpL16-k0 | 12 % of GpH7-B3/GpL16-k0 | 2 % of GpH7-B3/GpL16-k0 | GpH7-B3 variant G237V/GpL16-k0 (antibody, human IgG1, copies: 2 + 2) heavy: not shown light: DIVMTQSPLSLPVTPGEPASISCQASESLVHSNRNTYLHWYLQKPGQSPQLLIYKVSNRFSGVPDRFSGSGSGTDFTLKISRVEAEDVGVYYCSQNTHVPPTFGQGTKVEIE |
| 100 % of GpH7-B3/GpL16-k0 | 65 % of GpH7-B3/GpL16-k0 | 57 % of GpH7-B3/GpL16-k0 | 53 % of GpH7-B3/GpL16-k0 | 50 % of GpH7-B3/GpL16-k0 | GpH7-B3 variant L234M/GpL16-k0 (antibody, human IgG1, copies: 2 + 2) heavy: not shown light: DIVMTQSPLSLPVTPGEPASISCQASESLVHSNRNTYLHWYLQKPGQSPQLLIYKVSNRFSGVPDRFSGSGSGTDFTLKISRVEAEDVGVYYCSQNTHVPPTFGQGTKVEIE |
| 31 % of GpH7-B3/GpL16-k0 | 51 % of GpH7-B3/GpL16-k0 | 18 % of GpH7-B3/GpL16-k0 | 77 % of GpH7-B3/GpL16-k0 | 51 % of GpH7-B3/GpL16-k0 | GpH7-B3 variant L234D/GpL16-k0 (antibody, human IgG1, copies: 2 + 2) heavy: not shown light: DIVMTQSPLSLPVTPGEPASISCQASESLVHSNRNTYLHWYLQKPGQSPQLLIYKVSNRFSGVPDRFSGSGSGTDFTLKISRVEAEDVGVYYCSQNTHVPPTFGQGTKVEIE |
| 94 % of GpH7-B3/GpL16-k0 | 64 % of GpH7-B3/GpL16-k0 | 63 % of GpH7-B3/GpL16-k0 | 90 % of GpH7-B3/GpL16-k0 | 36 % of GpH7-B3/GpL16-k0 | GpH7-B3 variant L234W/GpL16-k0 (antibody, human IgG1, copies: 2 + 2) heavy: not shown light: DIVMTQSPLSLPVTPGEPASISCQASESLVHSNRNTYLHWYLQKPGQSPQLLIYKVSNRFSGVPDRFSGSGSGTDFTLKISRVEAEDVGVYYCSQNTHVPPTFGQGTKVEIE |
| 83 % of GpH7-B3/GpL16-k0 | 41 % of GpH7-B3/GpL16-k0 | 45 % of GpH7-B3/GpL16-k0 | 33 % of GpH7-B3/GpL16-k0 | 45 % of GpH7-B3/GpL16-k0 | GpH7-B3 variant L234P/GpL16-k0 (antibody, human IgG1, copies: 2 + 2) heavy: not shown light: DIVMTQSPLSLPVTPGEPASISCQASESLVHSNRNTYLHWYLQKPGQSPQLLIYKVSNRFSGVPDRFSGSGSGTDFTLKISRVEAEDVGVYYCSQNTHVPPTFGQGTKVEIE |
| 80 % of GpH7-B3/GpL16-k0 | 18 % of GpH7-B3/GpL16-k0 | 16 % of GpH7-B3/GpL16-k0 | 19 % of GpH7-B3/GpL16-k0 | 25 % of GpH7-B3/GpL16-k0 | GpH7-B3 variant L234Q/GpL16-k0 (antibody, human IgG1, copies: 2 + 2) heavy: not shown light: DIVMTQSPLSLPVTPGEPASISCQASESLVHSNRNTYLHWYLQKPGQSPQLLIYKVSNRFSGVPDRFSGSGSGTDFTLKISRVEAEDVGVYYCSQNTHVPPTFGQGTKVEIE |
| 65 % of GpH7-B3/GpL16-k0 | 21 % of GpH7-B3/GpL16-k0 | 29 % of GpH7-B3/GpL16-k0 | 24 % of GpH7-B3/GpL16-k0 | 32 % of GpH7-B3/GpL16-k0 | GpH7-B3 variant L234H/GpL16-k0 (antibody, human IgG1, copies: 2 + 2) heavy: not shown light: DIVMTQSPLSLPVTPGEPASISCQASESLVHSNRNTYLHWYLQKPGQSPQLLIYKVSNRFSGVPDRFSGSGSGTDFTLKISRVEAEDVGVYYCSQNTHVPPTFGQGTKVEIE |
| 54 % of GpH7-B3/GpL16-k0 | -2 % of GpH7-B3/GpL16-k0 | 1 % of GpH7-B3/GpL16-k0 | -3 % of GpH7-B3/GpL16-k0 | 1 % of GpH7-B3/GpL16-k0 | GpH7-B3 variant L234K/GpL16-k0 (antibody, human IgG1, copies: 2 + 2) heavy: not shown light: DIVMTQSPLSLPVTPGEPASISCQASESLVHSNRNTYLHWYLQKPGQSPQLLIYKVSNRFSGVPDRFSGSGSGTDFTLKISRVEAEDVGVYYCSQNTHVPPTFGQGTKVEIE |
| 66 % of GpH7-B3/GpL16-k0 | 50 % of GpH7-B3/GpL16-k0 | 48 % of GpH7-B3/GpL16-k0 | 37 % of GpH7-B3/GpL16-k0 | 49 % of GpH7-B3/GpL16-k0 | GpH7-B3 variant L235A/GpL16-k0 (antibody, human IgG1, copies: 2 + 2) heavy: not shown light: DIVMTQSPLSLPVTPGEPASISCQASESLVHSNRNTYLHWYLQKPGQSPQLLIYKVSNRFSGVPDRFSGSGSGTDFTLKISRVEAEDVGVYYCSQNTHVPPTFGQGTKVEIE |
| 1 % of GpH7-B3/GpL16-k0 | 87 % of GpH7-B3/GpL16-k0 | 60 % of GpH7-B3/GpL16-k0 | 88 % of GpH7-B3/GpL16-k0 | 60 % of GpH7-B3/GpL16-k0 | GpH7-B3 variant L235D/GpL16-k0 (antibody, human IgG1, copies: 2 + 2) heavy: not shown light: DIVMTQSPLSLPVTPGEPASISCQASESLVHSNRNTYLHWYLQKPGQSPQLLIYKVSNRFSGVPDRFSGSGSGTDFTLKISRVEAEDVGVYYCSQNTHVPPTFGQGTKVEIE |
| 67 % of GpH7-B3/GpL16-k0 | 36 % of GpH7-B3/GpL16-k0 | 35 % of GpH7-B3/GpL16-k0 | 44 % of GpH7-B3/GpL16-k0 | 47 % of GpH7-B3/GpL16-k0 | GpH7-B3 variant L234N/GpL16-k0 (antibody, human IgG1, copies: 2 + 2) heavy: not shown light: DIVMTQSPLSLPVTPGEPASISCQASESLVHSNRNTYLHWYLQKPGQSPQLLIYKVSNRFSGVPDRFSGSGSGTDFTLKISRVEAEDVGVYYCSQNTHVPPTFGQGTKVEIE |
| 15 % of GpH7-B3/GpL16-k0 | 72 % of GpH7-B3/GpL16-k0 | 52 % of GpH7-B3/GpL16-k0 | 64 % of GpH7-B3/GpL16-k0 | 56 % of GpH7-B3/GpL16-k0 | GpH7-B3 variant L235E/GpL16-k0 (antibody, human IgG1, copies: 2 + 2) heavy: not shown light: DIVMTQSPLSLPVTPGEPASISCQASESLVHSNRNTYLHWYLQKPGQSPQLLIYKVSNRFSGVPDRFSGSGSGTDFTLKISRVEAEDVGVYYCSQNTHVPPTFGQGTKVEIE |
| 63 % of GpH7-B3/GpL16-k0 | 20 % of GpH7-B3/GpL16-k0 | 21 % of GpH7-B3/GpL16-k0 | 19 % of GpH7-B3/GpL16-k0 | 22 % of GpH7-B3/GpL16-k0 | GpH7-B3 variant L234S/GpL16-k0 (antibody, human IgG1, copies: 2 + 2) heavy: not shown light: DIVMTQSPLSLPVTPGEPASISCQASESLVHSNRNTYLHWYLQKPGQSPQLLIYKVSNRFSGVPDRFSGSGSGTDFTLKISRVEAEDVGVYYCSQNTHVPPTFGQGTKVEIE |
| 93 % of GpH7-B3/GpL16-k0 | 33 % of GpH7-B3/GpL16-k0 | 30 % of GpH7-B3/GpL16-k0 | 27 % of GpH7-B3/GpL16-k0 | 30 % of GpH7-B3/GpL16-k0 | GpH7-B3 variant L234T/GpL16-k0 (antibody, human IgG1, copies: 2 + 2) heavy: not shown light: DIVMTQSPLSLPVTPGEPASISCQASESLVHSNRNTYLHWYLQKPGQSPQLLIYKVSNRFSGVPDRFSGSGSGTDFTLKISRVEAEDVGVYYCSQNTHVPPTFGQGTKVEIE |
| 96 % of GpH7-B3/GpL16-k0 | 52 % of GpH7-B3/GpL16-k0 | 62 % of GpH7-B3/GpL16-k0 | 68 % of GpH7-B3/GpL16-k0 | 49 % of GpH7-B3/GpL16-k0 | GpH7-B3 variant L234F/GpL16-k0 (antibody, human IgG1, copies: 2 + 2) heavy: not shown light: DIVMTQSPLSLPVTPGEPASISCQASESLVHSNRNTYLHWYLQKPGQSPQLLIYKVSNRFSGVPDRFSGSGSGTDFTLKISRVEAEDVGVYYCSQNTHVPPTFGQGTKVEIE |
| 82 % of GpH7-B3/GpL16-k0 | 48 % of GpH7-B3/GpL16-k0 | 21 % of GpH7-B3/GpL16-k0 | 62 % of GpH7-B3/GpL16-k0 | 63 % of GpH7-B3/GpL16-k0 | GpH7-B3 variant L234E/GpL16-k0 (antibody, human IgG1, copies: 2 + 2) heavy: not shown light: DIVMTQSPLSLPVTPGEPASISCQASESLVHSNRNTYLHWYLQKPGQSPQLLIYKVSNRFSGVPDRFSGSGSGTDFTLKISRVEAEDVGVYYCSQNTHVPPTFGQGTKVEIE |
| 50 % of GpH7-B3/GpL16-k0 | 0 % of GpH7-B3/GpL16-k0 | 2 % of GpH7-B3/GpL16-k0 | 0 % of GpH7-B3/GpL16-k0 | 4 % of GpH7-B3/GpL16-k0 | GpH7-B3 variant L234R/GpL16-k0 (antibody, human IgG1, copies: 2 + 2) heavy: not shown light: DIVMTQSPLSLPVTPGEPASISCQASESLVHSNRNTYLHWYLQKPGQSPQLLIYKVSNRFSGVPDRFSGSGSGTDFTLKISRVEAEDVGVYYCSQNTHVPPTFGQGTKVEIE |
| 79 % of GpH7-B3/GpL16-k0 | 26 % of GpH7-B3/GpL16-k0 | 25 % of GpH7-B3/GpL16-k0 | 24 % of GpH7-B3/GpL16-k0 | 22 % of GpH7-B3/GpL16-k0 | GpH7-B3 variant L234A/GpL16-k0 (antibody, human IgG1, copies: 2 + 2) heavy: not shown light: DIVMTQSPLSLPVTPGEPASISCQASESLVHSNRNTYLHWYLQKPGQSPQLLIYKVSNRFSGVPDRFSGSGSGTDFTLKISRVEAEDVGVYYCSQNTHVPPTFGQGTKVEIE |

— patent US20200199241A1 (Chugai, published 2020)
